Data on 9 substances can be found in PMC9177848.

In assay [1] the target is smBiT-β-arrestin (an N-terminal smBiT) (UniProt P32121). Briefly: NanoBiT β-arrestin recruitment assay. The conditions noted are these: highest fenoldopam concentration shown, log[Fenoldopam] M about -4.3; parent: est. 2.7; read off a plot. (In general: Recruitment of arrestin is a read-out of receptor activation apart from second messengers.)
Assay [2] addresses LgBiT-mini-Gs fusion protein. Briefly: NanoBiT mini-Gαs recruitment assay. The following applies: agonist fenoldopam; three independent experiments; parent: est. 7.2; read off a plot.

“D1R-LgBit (WT) (from UniProt P21728) K81V”: the response in assay [1] came to 1.2 fold change.
Turning to “D1R-SmBiT fusion protein (WT) (from UniProt P21728) F288A”, the other: pEC50 in assay [2] is 6.
Still for that read-out and setting: with “D1R-SmBiT fusion protein (WT) (from UniProt P21728) F289A” the figure was 6.1; with “D1R-SmBiT fusion protein (WT) (from UniProt P21728) K81V”, 6; with “D1R-SmBiT fusion protein (WT) (from UniProt P21728) L190A”, 5.
As for “D1R-SmBiT fusion protein (WT) (from UniProt P21728) N292L”, the other: pEC50 in assay [2] was determined as 5.4.
Same read-out and setting: with “D1R-SmBiT fusion protein (WT) (from UniProt P21728) S198G” the figure was 5.1.
On the same count and under the same terms, with “D1R-SmBiT fusion protein (WT) (from UniProt P21728) S202A” the figure was 6.6; with “D1R-SmBiT fusion protein (WT) (from UniProt P21728) W321F”, 6.5.
